Measurements reported in the nanobody polyreactivity screen of Harvey et al. (2022).

Assay: yeast display, Sf9 membrane polyspecificity reagent, FACS + sequencing; frameworks hold sequencing errors
Procedure, shortened: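 Galactose induction of a Saccharomyces cerevisiae BJ5465 synthetic nanobody display library ran 36–48 hours. The cells were then stained for 1 hour at 4 °C with 10% biotinylated, detergent-solubilized Sf9 membrane reagent, pulled down on streptavidin microbeads and FACS-sorted into low and high (top ~1%) gates on expression and reagent-binding fluorescence. Labels for polyreactivity follow the gate of origin.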

Row | Sequence | polyreactivity (PSR sort gate)
1 | QVQLLESGGGLVQAGGSLRLSCAASGSTFPRNAMGWYRQAPGKERELVATITSSGGGTYYADSVKGRFTISRDNAKNTVYLQMNSLKPEDTAVDYCNADGPAGDAFDYWGQGTQVTVSS | low polyreactivity
2 | QVQLLESGGGLVQAGGSLRLSCAASGSTIRVNGMGWYRQAPGKERELVAVISWSGGSTYYADSVKGRFTISRDNAKNTVYLQMNSLKPEDTAVYYCNKLIYDEDEYWGQGTQVSVSS | high polyreactivity
3 | QVQLLESGGGLVQAGGSLRLSCAASGYTFKAYAMGWYRQAPGKERELVAAISRGGRTNYADSVKGRFTISRDNAKYTVYLQMNSLKPEDTAVYYCNTQRQLGERFYDRSRQGDYWGHGTQVTVSS | high polyreactivity
4 | QVQLLESGGGLVQAGGSLRLSCAASGYTFRFNAMGWNRQAPGKETEFVAAIDFGGAGTYYADSVKGRFTISRDNAKNTVYLQMNSLKPEDTAVYYCNARDGVTTEFDYWGQVTQVTVSS | low polyreactivity
5 | QVQLLESGGGLVQAGGSLRLSCAAYGSTFGYNDMGWYRQAPGKVRELVAAITRRSGSTYYADSVKGRFTISRDNAKNSVNLQMNSLKPEDTAVYYCAASYHYGDRWPIRMDYWGQGTQVTVSS | low polyreactivity
6 | QVQLLESGGGLVQAGGSLRLTCAASGSTFKRYAMGWYRQAPGKERELVAAITTSGGSTYYADSVKGRFTISRDNAKNTVYLQMNSLEPEDTAVYYCAAVWPGRRTTNYYFPGHGYQYGYWGQGTQVTVSS | high polyreactivity
7 | QVQLLESGGGLVQAGGSLRLTCAASGSTFSPNAMGWYRQAPGKERELVAAITYRGANTYYADSVKGRFTISRDNAKITVYLQMNSLKPEDTAVYYCDAEYAYHHVGFGYWGQGTQVTVSS | low polyreactivity
8 | QVQLLESGGGLVQAGGSVRLSCAASGFTYRYYAMGWYRQEPGKERELVASISFSGTRTYYADSVKGRFTISRDNAKNTVFLQMNSLKPHDTAVDYCNACLYSRYEFDYWGQGSQVTVSS | high polyreactivity
9 | QVQLLESGGGLVQAGGTLRLSCAASGITFTVYTMGWYRQAPGKERELVAAIDSDGITNYADSVKGRFTISRDNAKNTVYLQMNSLKPEDTAVYYCAKQSGRADGVSGFDYWGQGTQVTVSS | low polyreactivity
10 | QVQLLESGGGLVQAGGTLRLSCAASGRISWYNAMGWYRQAPGKERELVAAIRGGGSTHYADSVKGRFTISRDNAKNTVYLQMNSLKPEDTAVYYCAAYLYYPFYWWRDYWGQGTQVTVSS | high polyreactivity
11 | QVQLLESGGGLVQAGRSLRLSCAASGSIFWYAMGWYRQAPGKERELVATITSGASTTYADSVKGRFTISRDNAKNTVYLQMNSLNPEDTAVYYCAKRNYLSYRYDYWGQGTQVNVSS | low polyreactivity
12 | QVQLLESGGGLVQARGSLRLSCAASGRILEGYAMGWYRPAPGKERELVAALSFSTTPTYYADSVKGRFTISRDNAKNTVYLQMYSLKPEDTAVDYCAADSQQSDYDYWGQGSQVTVSS | high polyreactivity
13 | QVQLLESGGGLVQARGSLRLSCAASGRNFVPYVMGWYRQAPGKERELVASISDSDTSTYYADSVKGRFTISRDNAKNTVYLQMNSLKPEDTAVYYCNVDYWGQGTQVTVSS | low polyreactivity
14 | QVQLLESGVGLVQAGGTLRLSCAASGRTFYRNAMGWYRQATGKEREMVAAISQSGGSTYYADSVKGRFTISRDNAKNTVYLQMNSLKPEDTAVYYCAAGNSRRVGMDYWGQGTQVTVSS | high polyreactivity
15 | QVQLLESWGGLVHAGGSLRLSCAASGRIIYRYAMGWSRQAPGNERELVAGISNAGGSTYYADSVKGRFTISRDNAKNTVYLQMNSLKPEDTAVYYCATGPSYRYDKGGGRSRYYYWGQGTQVTVSS | high polyreactivity
16 | QVQLLESWGGLVQAGGSLRLSCAASGRTSTRNAMGWSRQAPGKERELVAAISWSGGRTHYADSVKWRFTISRDNAMNYVYYQMNSLKQEATAVYYCAAAYTGGQYYYSWGQGTQVSVSS | high polyreactivity
17 | QVQLLETGAGLVHAGGSLRLSCAAYGFIFRDYAMGCYRQAPGKERELVAAIYYSGGSTYYADSVKGRFTISRDNAKNTVYLQLNSLKPEDTAVYYCNAVNPYYAPTDRRVGYDYWGQGTQVTVSS | high polyreactivity
18 | QVQLLETGRGLVQAGGSLRLSCASSGSIFFLYAMGWYRQAPGKERELVAAINWRTGRTYYADSVKWRFTISRDNAKNTVYFQMNSLKPEDTEVYYCAARSVPSPERGFYYWGQGTQVTVSS | high polyreactivity
19 | QVQLQDSGGGLVQAGGSLRQNCETSGTIFVLWYMGWYRQAPGKERELVATINDGANTYYADSVKGRFTINRDNANSTVYMKMNSLIPEDTAVYYCAVYAIIVWGLGYWGQGTQVTVSS | high polyreactivity
20 | QVQLQECGGGLVQAGGSLRLSCAASGTFSNSVKWLYCHAPGKEREFVATIGVGGSTNYADSVKGRFTISRDNAKYTVYLQMNSLKPEDTAVYHCAAYGAASNFHYYRGQGTQVTVSS | low polyreactivity
21 | QVQLQECGGGLVQAGGSLRLSCAASGTFSNSVKWLYCQAPGKEREFVATIGVGGSTNYADSVIGRFTISRDNAKNTVYLQMNSRKQEDTAVYHCAAYGAASNFHYYRGQGTQVTVSS | low polyreactivity
22 | QVQLQEGGGGLVQAGVSLRLSCAASGYISYGDVMGWNRQAPGEERELVASIGLDATTNYADSVKGRFTISRDNAKISVYLQMNSLKPEATAVYYCAADVGSGVLCGYWGQGTQMTVSS | high polyreactivity

Row | Sequence | polyreactivity (PSR sort gate)
23 | QVQLQEIGGSLVQAGGSLRLSGAASGNILVLPPGQVSPGAERELDATITGGSITYYADSVKGRFTISRDNAKNTVYLQMNSLKPEDTAVYYCAAVSLRKSYGYNYWGQGTLVTVSS | high polyreactivity
24 | QVQLQERAGGLVQAGGSLRQRCSASGYISCDASMGWYRQAPGKERELAASITKGSSTKYADIVKGRFTFRDNAKNTVYLKMNSLKPEDTAVCYCAVTYPYWGDYTYWGQGTQVTVSS | low polyreactivity
25 | QVQLQERAGGLVQAGGSLRQSCAASGYRSLAQTIGWYRQAPGKEREFVASIALGSSTYYTDSVKGSFTISRDNAKTTVYLQMNSLKPEATAVYYCNARDDVYLITPYFLVYVNLDYWGQGTQVTVSS | low polyreactivity
26 | QVQLQERGGGLVQAGASLRQSCAASGTIFTARFMGWYRQAPGKERELVATITDGGNTNDADSVKGRFTSSRDNAKITVYLQMNSLKPEYAAVYYCAAGEVDNDTLLYWGQGSQVTVSS | low polyreactivity
27 | QVQLQERGGGLVQAGGSLRLSCAASGSIFQYTLMGWYLQAPGKEREFVAAITDGANTNYADSVKGRFSISRDNAKNTVNLQMNSLKPEETAVYYCATDYGYTDRVTSGFDYWGLGTQVTVSS | low polyreactivity
28 | QVQLQESAGGLVQAGGSLRLRCSASGYISCDASMGWYRQAPGKERELAASITKGSSTNYADSVKGRFTIRDNAKNTVYLQMNSLKPEDTSVCYCAVTYPYWGDYTYWGQGTQVTVSS | low polyreactivity
29 | QVQLQESAGGLVQAGGSLRQSCEASGYIIPYYSMGWYRQSPGKERGLVACIAAGTTTNYADSVNGRFTISRDNEKNTVYLQMNSLNPEDAAVYFCAALNAFNTGHWYWGQGTQVTVSS | low polyreactivity
30 | QVQLQESCGGLVQAGGCLRLSCAASGTIFDPDYMGWYHQAPCKERELVASISLGRITYYADSVKGRFTINRDNAKNTVYLQMNSLKPEDTAVYYCAVRVETIYYYSYWGQGTQVTVRS | high polyreactivity
31 | QVQLQESDGGLVQAGGSLRLTCAASGSISPQYYMGWYRQAPGQEREFVAISKGTTTYYADSVKGRLTISRVNAKNTVYLQMNSLKPEDTAVYCCAAGRWLQKVHAYWDQGTQVTVSS | low polyreactivity
32 | QVQLQESGACLVLAGGSLRMSCASSGYIFDTCPMGGYRQAPGKEREFVASIDHGSNTYYADSVKGRFTISRDSAKNTVYLQLNSLKPEDTAVYYCAVRDDGSYTYGNWGQGTQVSVSS | high polyreactivity
33 | QVQLQESGAGLDQAGGSLRLSCAPSGYISDIGTMGWYRQAPGKEREFVATIVVGSTTNYADSVKGRFTISRDNAKNTVYLQPESGRYRGVVLRGWLLAVGKFTYWGQGTQETVSS | low polyreactivity
34 | QVQLQESGAGLEQAGGSLRMSCAASGYISDIVTMGWYRQAPGKEREFVATIVVGSTTNYADSVKGRFTISRDNANNSVYLQPESGRYRGVLLRGWLLAVGKFTYWGQGTQETVSS | low polyreactivity
35 | QVQLQESGCGLVQAGGSLRLSCAASGDIIEADDMGWYRQAPGKERELVASITDGGSTNCADSMKGRSTICRDNAKITVYLQMNSLKLEDTAVYYCAAIAYPDVPTYFDYDSDYFYWGQGTLVTVSS | high polyreactivity
36 | QVQLQESGCGLVQAGGSLRLSCAASGSISAVGAMGWYRQAPGKEREFAASVNWGTNTNYADSVKGRFTISRDNAKNTLYLLMNSLTPEDTAVYYCAVLPDWETRHDYWGHGTQVTVSS | low polyreactivity
37 | QVQLQESGDGLVQAVGSLRLSCAASGYISGYYYMGWYRQAPGKERELVAGIDAFGSSTNYADCVKGRFTISRDNAKNTVYLQMNSLKPEDTAVYYCAARPDGYRLFSYWGQGTQVTVSS | low polyreactivity
38 | QVQLQESGGCLVQAGGSQRLSCAASGYIFYFQYMGWYRQAQGKEREFVAAISDGANTNYADSVKGRFTISRDNAKNTEYLKMNSLKPEDTAVYYCAVYADENYYYIYWGQGTQVTVSS | low polyreactivity
39 | QVQLQESGGGLAQAGGSLRLSCAASGTIFPADSMGWYRQAPGKERELVAGITTGANTYYADSVKGRFTISHDNAKNTVYLQMDSLIPEDIALYYCAAPGSSTYDLEYWGQGTQVTVSS | high polyreactivity
40 | QVQLQESGGGLAQAGGSLRLTCAASGTIFPADSMGWYRQAPGKERELVAGITSGANTYYADSVKGRFTISHDNAKNTVYLQMDSLIPEDIAVYYCGAPGSSTYDLEYWGQGTQVTVSS | high polyreactivity
41 | QVQLQESGGGLEQAGGSLRLSCAASGYISEIGTMGWYRQAPGKEREFVATIVVGSTTNYADSVKGRFTISRDNAKNTVYLQPESGRYRGVLLRGWLLAVGKFNYWGQGTQETVSS | low polyreactivity
42 | QVQLQESGGGLEQAGVSLRLSCAASGYISDIGTMGWYRQAPGKEREFVATIVVGSTTNYADSVKGRFTISRDNAKNTVYLQPESGRYRGVLLRGWLLAVGIFTYWGQGTQETVSS | low polyreactivity
43 | QVQLQESGGGLLQAGGSLRLSCAASGTISTDSYMGWYRQAPGKERKFVATIGYGGITYYADSVKGRSTISRDSAKNTVYLQMNSLKPEDTEVYYCAVNSYYPDHYWYWGRGTQVTVSS | high polyreactivity
